Source: the nanobody polyreactivity screen of Harvey et al. (2022)

test: yeast display, Sf9 membrane polyspecificity reagent, FACS + sequencing; frameworks hold sequencing errors
In short: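 In a synthetic yeast display library (Saccharomyces cerevisiae BJ5465), nanobody expression was induced with galactose for 36–48 hours. FACS gates were set low and high (top ~1%) using anti-HA fluorescence for expression and streptavidin fluorescence for binding of the Sf9 membrane reagent. Each polyreactivity label is drawn from the gate of origin.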

Row | Sequence | polyreactivity (PSR sort gate)
1 | QVQVVESGGALVQAGGSLRLSCAASGRIFSPYAMGWYRQAPGKESELVAAITSASSTYYADSVKGRFTISRDNAKNTVYLEMNRLKPEDTAVYYCAASYWRYGSAFDYWGQGTQVTVSS | high polyreactivity
2 | QVQVVESGGGILQAGGSLRLSCAASGSIFYTNAMGWYRQAPGKERELVAAINLRDTGTYYADSVKGRFTISRDNAKNTVYLQMNSLNPDDTAVYYCAVDVYSRRTRIRYDSWGHGTQVTVSS | low polyreactivity
3 | QVQVVESGGGIVQAGGSLRLSCAASGFIFNGNAMGWYRQAPGKERELVAADSVKGRFTISRDNAKNSVYLQMNRLKPEDTAVYYCATEFWQASDYDYWGHGTQVTVSS | low polyreactivity
4 | QVQVVESGGGLDNAGGSLGLSCAASGSIFYYNAMGWYRQAPGKERELVAAISSSGGSTYYADSVKGRFTISRDNAKNTVYLQMNSLKPEDTAVYYCAAKLRHWAHHTKYDYWGQGTQVTVSS | low polyreactivity
5 | QVQVVESGGGLVQAGGSLRLICAASGSTSWSYAMGWYRQAPGKERELVAAITRTGSTNYADSVKGRFTISRDNAKNTVYLQMNSLKPEDTAVYYCVYATLRYDYWGQGTQVTVSS | low polyreactivity
6 | QVQVVESGGGLVQAGGSLRLSCAASGFIFRTYTMGWYRQAPGKERELVAAISYRGSSTYYADSVKGRFTISRDNAKNTVYFLMNSLKPEDTADYYCAAQLYGHRGYYWGQGTQVTVSS | high polyreactivity
7 | QVQVVESGGGLVQAGGSLRLSCAASGFIIKDNAMGWYRQAPGKERELVAAITASGGRTYYADSVKGRFTISRDNAKNTVYLQMNSLKPEDTAVYYCAKRVKRPSESYNYNYYYWGQGTQVTVSS | high polyreactivity
8 | QVQVVESGGGLVQAGGSLRLSCAASGRIYQYYDMGWYRQAPGKERELVATITSGGSTNYADSVKGRFTISRDNAKNTVYLQMNSLKPEDTAVYYCAALAYTASDYQPYDATEYNYWGQGTQVTVSS | low polyreactivity
9 | QVQVVESGGGLVQAGGSLRLSCAASGRTFTRYAMGWYRQAPGKERELVATITRGGSTNYADSVKGRFTISRDNAKNTVYLQMNSLKPEDTAVYYCAAGYFIRTRSRYRYDYWGQGTQVTVSS | high polyreactivity
10 | QVQVVESGGGLVQAGGSLRLSCAASGSFFTRYAIGWYRQAPGKERELVAAISGSGGSTYYADSVKGLFTISRDNAKITVSLQMNSLKPEDTAVYYCAARDYWGQGTQVTVSS | high polyreactivity
11 | QVQVVESGGGLVQAGGSLRLSCAASGSIFGGYTMGWYRQAHGNERELVAGITISGGSTYYADSVKGRFTISRDTAKNTVYLQMNSLKPEDTAVYYCAAVSFVVSSWGYGYWGQGTQVTVSS | low polyreactivity
12 | QVQVVESGGGLVQAGGSLRLSCAASGSIFHAYTMGWSRQAPGKERELVAAISRGDRTYYADSVKGRFTISRDNAKNTVSLQMNSLKPEDTAVYYCNRDRYRYDSWGQGTQLTVSS | high polyreactivity
13 | QVQVVESGGGLVQAGGSLRLSCAASGSIFNQYAMGWHRQAPGKERELVAAISSDGGRTYYADSVKGRFTISRDNAKNTVYLQMNSLKPEDTAVYYCNADFPAYGLQGDDYWGQGTQVTVSS | low polyreactivity
14 | QVQVVESGGGLVQAGGSLRLSCAASGSIIYYYAMGWYRQAPGKERELVARISWNGGSTYYADSVKGRFTISRDNAKNTVYLQMNSLKPEDNAVYYCAARPWHHYYWGQGTQVTVSS | high polyreactivity
15 | QVQVVESGGGLVQAGGSLRLSCAASGSTFSIYAMGCYRQAPGKERELVAAISSSGGSTYYADSVKGRFTISRDNGKNTVYLQMNSLKPEDTAVYYCNKRKYHVRYDYWGQGTQVTVSS | low polyreactivity
16 | QVQVVESGGGLVQAGGSLRLSCAASGSTFVLNAMGWYRQAPGKERELVAAITYGGSTYYADSVKGRFTISRDNAKNTVYLQMNSLKPEDTAVYYCAVTYNGDSSWPGDYWGQGTQVTVSS | low polyreactivity
17 | QVQVVESGGGLVQAGGSLRLSCAASGSTFWWYAMGWYRQAPGKERELVAAITSGGSTNYADSVKGRFTISRDNAKNTVYLQMNSLKPEVTAFYYCAKVPRPLVYYIRLGYWGQGTQVTVSS | high polyreactivity
18 | QVQVVESGGGLVQAGGSLRLSCAASGWYNAMGWYRQAPGKERELVAAISWDGDSTYYADSVKGRFTISRENAKNTVYLQMNSLKPEDTAVYYCAATQSTGRGRYYYWGKGTQVTVSS | high polyreactivity
19 | QVQVVESGGGLVQAGGSLRLSCASSGRTFGIYAMGWYRPAPGKESEWVASISWSGGRTYYADSVKGRFTISRDNAKNTVYLVMISLKPEDTAVYFCAARWYYVTPLRRYGYWGQGTQVTVSS | high polyreactivity

Row | Sequence | polyreactivity (PSR sort gate)
20 | QVQVVESGGGLVQAGGSLRVICAASGSTFYRNAMGWYRQAPGKEWELVAAITRSASSTYYADSVKGRFTISRDNAKNNVDLQLNSLKPEDTAVYYCAAKRRVSHLDYWGQGTQVNVSS | high polyreactivity
21 | QVQVVESGGGLVQPGCSLRLSCAASGNIFVYNDMGWYRQAPGKERELVAAIDSGGSTYYADSVKGRFTISRDNAKNNVYLKMNSLKQEDTAVYYCAADYYCTYRTIYYYWGQGTQVTVSS | low polyreactivity
22 | QVQVVESGVGLVQSGGSLRLSYAASGSIFIPYPMGWYRQAPGKERELVAAISSSGSTYYADSVKGRFTISRDNAKNTFYLQMNSLKPEDTAVYYCAAERHYSYSSYDDWGQGTQVTVSS | low polyreactivity
23 | QVRLVESGGGLVQAGGSLRLRCAASGSTFYTYAMGRYRQAPGKERELVAAITFIDGSTYYADSVKGRFTISRDNANNTVYLQMNSLKPEDTAVYYCAAASRGWGYPLYYSTDEYWGHGTQVTVSS | low polyreactivity
24 | QVRLVESGGGLVQAGGSLRLSCAASGRIFASYAMGWNRQAPGKETELVAAISKSGGRTYYADSVKGGFTISRDNAKNTVYLQMNSLKPEDTAVYYCAAYFWTRSGTPNYDYWGQGTQVTVSS | high polyreactivity
25 | QVRLVESGGGLVQAGGSLRLSCAASGSIFAPYAMGWYRQAPGKERELVATIRTTGDSTYYADSVKGRFTISRDNAKNTVYLQMNSLKPEDTAVYYCAKSEPLVVGVSPWYQVDYCGQGTQVTVSS | low polyreactivity
26 | QVRLVESGGGLVQAGGSLRLSCAASGSILDINAMGWYRQAPGKERELVASISWTGGHTYYADSVKGRFTISRDNAKNTVYLQMNSLKPEDTAVYDCAATHQETVYYFLSIFDYWGQGTQVTVSS | low polyreactivity
27 | QVRLVESGGGLVQAGGSLRLSCAASGSILYRYTMGWYRQAPGKETELVAAITWSDGSTYYSDSVKGRFTISRDNAKNTVYLQKNSLKPEDTAVYDCAADLWLDVDHEWSGGDYWGQGTQVTVSS | low polyreactivity
28 | QVRLVETGGGLVQAGGSLRLSCAASGSIFLIYDMGWYRQAPGKEMELVAAISNSVGSTYADSVKGRFTMSRDNAKNTVYLQMNSLKPEDTAVYYCNADYGPIDGRGGYWGQGTQVTVSS | low polyreactivity
29 | QVRRVESGGGLVQAGGSLRLSCAASGSTFPWYAMGWYRQAPGTERELVASITSGTTTNYADSVKGRFTISRDNAKNTVYLEMNSLKPEDTAVYYCAASWVYPYDYWGQGTQVTVSS | low polyreactivity
30 | QYQLVESVGGLDQAGGTLRLSCAASARIFSYYAMGWYRQAPGKERELVATISYSGGSTYYADSVKGRFTISRDKAKNTVYLQMNSLKPEDSAVYYCAATRYPYFSFVRFPSRRFNYWGQGTQVTVSS | high polyreactivity
31 | RLVQAGGSLRLSCAASGRIFGTYAMGWYRQAPGKERELVAAITQSGGRTYYADSVKGRFTISRDNAKNSVYLQMNSLKPEDTAVYYCNKVTYRGIGLGYDYWGQGTQVTVSS | high polyreactivity
32 | RVQLGESGGGLVQAGGSLRLSCAASGRTFVRYAMGWYRQAPGKERELVAAISYRGASTFYADSVKGRFTISRDNAKNTVYLQMNSLNPEDTAVYSCATDPRIRYQGNPYDYWGQGTQVTVSS | high polyreactivity
33 | RVQLVESGGGLVQAGGRLRLSCAASRFTFIVNPMGWYRQAPGKERELVAAISWNGGSTYYADSVKGRFTISRDNAKNTVYLQMNSLKPEDTAVYYCAVLYRSEYDWGQGTQVTVSS | low polyreactivity
34 | RVQLVESGGGLVQAGGSLRLSCAASGGTFPVYAMGWYRQAPGKEWELVAAISYSGVTTYYADSVKGRFTISRDNAKNTVYLQMNSLKPEDTAVYYCNADWRRWYIFSYDYWGQGTQVTVSS | low polyreactivity
35 | RVQLVESGGGLVQAGGSLRLSCAASGITFGRNAMGWYRQAPGKERELVAAISRGGSTNYADSVKGRFTISRDNAKNTVYLQMNSLKPEDTAVYYCNARSFGPTESRYDYWGQGTQVTVSS | high polyreactivity
36 | RVQLVESGGGLVQAGGSLRLSCAASGSTISRYAMGWYRQAPGKERELVASISRSGTSTYYADSVKGRFTISRDNAKNTVYLQMNSLKPEDTAVYYCNKRWATSIQYRYNYWGQGTQVTVSS | high polyreactivity
37 | TYRGTTTYYADSVKGRFPIARDYAKNTVYLQMHSLKPEETAVYNWTRYYPSEYDYWGQGTHVTVSS | high polyreactivity
